Test [1] concerns the target FZD5-FZD6 chimeric protein (human). As to the kind of experiment: FRET or BRET; NanoBiT/BRET saturation binding on live HEK293A cells (setup 1): eGFP-WNT-3A conditioned medium 16.7 pM to 16.7 nM, 5% FBS, 10 mM HEPES, 240 min at 37 °C, then LgBiT and furimazine for 10 min; one-site specific model (normalised logarithmic fits for pKd).
Test [2] deals with FZD5-FZD7 chimeric protein (human). Described as above.

pKd: −log10 of the molar value.

The term pKd denotes the negative decadic logarithm of the Kd, by convention in mol/L.

eGFP-tagged mouse WNT-3A, sequence (P27467 19-352): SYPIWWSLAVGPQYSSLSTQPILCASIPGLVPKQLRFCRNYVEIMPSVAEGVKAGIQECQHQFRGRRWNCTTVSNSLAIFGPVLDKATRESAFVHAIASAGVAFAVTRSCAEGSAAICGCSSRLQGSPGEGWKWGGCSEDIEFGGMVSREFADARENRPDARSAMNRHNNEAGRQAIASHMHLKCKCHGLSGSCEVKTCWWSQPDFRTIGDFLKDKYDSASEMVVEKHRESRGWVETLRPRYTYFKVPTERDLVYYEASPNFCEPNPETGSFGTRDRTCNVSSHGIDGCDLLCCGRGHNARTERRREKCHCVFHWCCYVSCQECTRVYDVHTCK

For “eGFP-tagged mouse WNT-3A (from UniProt P27467 19-352) (ligand)”, the pKd in test [1] is 8.36; in test [2], 8.30.

The record behind these values is article PMC8205236.
